Data set [1] is described as follows: TNP-ATP fluorescence measurements, IDE and ATP binding site mutants. The note with it: 1.5 μM enzyme, 10 μM TNP-ATP, λexc=403 nm. The method, then: Fluorescence emission spectra were recorded on a Perkin-Elmer LS 55 Luminescence spectrometer with 1.5 μM of IDE, IDE^R429S or IDE^K898A,K899A,S901A in 50 mM Tris-HCl, pH 7.4 with 10 μM TNP-ATP. Fluorescence spectra were recorded with a λexc=403 nm.
TNP-ATP [2′,3′-O-(2,4,6-Trinitrophenyl)adenosine-5′-triphosphate] fluorescence was monitored at excitation and emission wavelengths of 403 nm and 547 nm, respectively, using a Perkin-Elmer LS55 Luminescence Spectrometer at 20±0.1° C. TNP-ATP (Molecular Probes, Inc.) as supplied was diluted to 4 mM with 50 mM Tris-HCl, pH 7.4, and added to achieve the indicated concentrations.

Data set [2] has as its system Abz-GGFLRKHGQ-EDDnp. Kind of data set: Enzyme activity assay, kinetics of IDE and ATP binding site mutants with fluorogenic substrate. In kind it is biochemical. The note with it: Abz-GGFLRKHGQ-EDDnp as substrate. The method, then:
Reactions were conducted in 50 mM Tris-HCl, pH 7.4.
(§1) IDE activity was determined by measuring the increase in fluorescence that occurs when the enzyme cleaves the internally quenched fluorogenic substrate Abz-[…]-EDDnp (SEQ ID NO:3) at the R—K bond (Song et al., Journal of Biologial Chemistry 276, 1152-1155 (2001)). The reaction was followed on a SpectraMax Gemini XS fluorescence plate reader using an excitation and emission wavelengths of 318 nm and 419 nm, respectively. Initial velocities were determined using SoftMax Pro 4.0 and kinetic constants calculated using GraphPad Prism 4.0. ATPase activity was measured by following Pi release with acid-molybdate as described by Harder et al. (Harder et al., Biochemical Journal 298 (Pt 2), 395-401 (1994)).

The test system of data set [3] is Abz-GGFLRKHGQ-EDDnp. Kind of data set: Activation by ATP of Abz-[…]-EDDnp hydrolysis, IDE and ATP binding site mutants. Particulars: 10 μM Abz-GGFLRKHGQ-EDDnp as substrate. In kind it is biochemical. The method, then: Activity was determined in 50 mM Tris-HCl, pH 7.4 with 10 μM Abz-[…]-EDDnp (SEQ ID NO:3) as substrate at the indicated concentrations of ATP (panel A), PPPi (panel B) or, TNP-ATP (panel C). Each reaction contained 0.5 μg of enzyme.
as §1

Data set [4] has as its system Abz-GGFLRKHGQ-EDDnp. Kind of data set: Activation by ATP, wild type rIDE and distal site mutants. The class given is biochemical. The note with it: 10 μM Abz-GGFLRKHGQ-EDDnp as substrate. The method, then:
(§2) FIG. 17. Effects of distal site mutations. (A) Comparison of the kinetics of wild type IDE with the distal site mutants. Activity was measured with varying amounts of Abz-[…]-EDDnp (SEQ ID NO:3) substrate as indicated. Either hyperbolic (Michaelis-Menten equation) or sigmoidal curves (Hill equation) were fit to the data. (B) Effect of bradykinin on the activity of wild type IDE and the distal site mutants. (C) Activation of wild type IDE and distal site mutants by ATP. Relative activity is the fold activation above the level of the wild type enzyme alone.
(§3) The activity of IDE was measured by following the increase in fluorescence upon hydrolysis at the L-R bond of the fluorogenic peptide Abz-[…]-EDDnp (SEQ ID NO:3) on a SpectraMax Gemini XS fluorescence plate reader using an excitation wavelength of 318 nm and emission wavelength of 419 nm. Reactions were carried out in 200 μl volumes containing 50 mM Tris-HCl, pH 7.4, 1.92 μg of wild type rIDE, 4.6 μg of rIDE-V360S, 4.3 μg rIDE-I374S, or 1.63 μg of rIDE-Y609F. For measurements of activation by bradykinin, IDE activity was determined with 10 μM Abz-[…]-EDDnp (SEQ ID NO:3) as substrate in 50 mM Tris-HCl buffer, pH 7.4. The amount of protein was 0.5 μg for wild type rIDE and 5 μg for each of the IDE distal-site mutants. Data were analyzed using Softmax 4.0 (Molecular Devices) and kinetic parameters calculated with Prism (Graphpad Software). […] Under these assay conditions, both wild type and mutant rIDE are almost completely dimeric.
Fluorescence measurements of TNP-ATP binding were performed on a Perkin-Elmer LS55 Luminescence Spectrometer. Titrations were monitored at an excitation wavelength of 403 nm and emission wavelength of 547 nm. The temperature of the sample was maintained at 20±0.1° C. by circulating thermostatically controlled water through the cuvette holder. […] The fluorescence of TNP-ATP was subtracted from the total fluorescence of enzyme+TNP-ATP to yield specific fluorescence enhancement (ΔF).

Data set [5] can be described thus: Fluorescence measurements of TNP-ATP binding, wild type rIDE and distal site mutants. Particulars: hyperbolic one site binding fit, 20 °C. The method, then: The fluorescence increase on binding of (2,4,6-trinitrophenyl)ATP (TNP-ATP) is plotted for the indicated IDE constructs as a function of ligand concentration. Data were fit to a hyperbolic one site binding mechanism.
Fluorescence emission spectra of 10 μM TNP-ATP in […] Tris-HCl, pH7.4, was measured in the presence of 1.5 μM of each wild type IDE and the indicated IDE distal mutants. Fluorescence spectra were recorded with a λexc=403 nm on a Perkin-Elmer LS55 Luminescence Spectrometer.
Fluorescence measurements of TNP-ATP binding were performed on a Perkin-Elmer LS55 Luminescence Spectrometer. Titrations were monitored at an excitation wavelength of 403 nm and emission wavelength of 547 nm. The temperature of the sample was maintained at 20±0.1° C. by circulating thermostatically controlled water through the cuvette holder. Assays were conducted in 200 μL reaction mixtures containing 50 mM Tris-HCl, pH, 7.4, 10 μM Abz-[…]-EDDnp (SEQ ID NO:3) as substrate, and 0.5 μg wild type rIDE, 2.3 μg rIDE-V3605, 2.0 μg rIDE-I3745 or 1.62 μg rIDEY609F and the indicated concentration of ATP. The fluorescence of TNP-ATP was subtracted from the total fluorescence of enzyme+TNP-ATP to yield specific fluorescence enhancement (ΔF).

Data set [6] has as its system Abz-GGFLRKHGQ-EDDnp. Kind of data set: Enzyme activity assay, kinetics of wild type rIDE and distal site mutants with fluorogenic substrate. The class given is biochemical. Particulars: rat IDE, Abz-GGFLRKHGQ-EDDnp as substrate; for Vmax: 50 mM Tris-HCl, pH 7.4. The method, then: as §2, §3

Changes are numbered by the printed parent chain. Numbers in names are those of the source.

As usually defined, the Hill coefficient is a measure of the steepness of the concentration-response curve. As usually defined, the Km is the substrate concentration at which the rate is half of its maximum. Usually kcat stands for the number of substrate molecules converted per active site and unit of time at saturation. Usually Vmax stands for the rate approached at saturating substrate. The term Kd denotes the free concentration of one partner at which half of the binding sites on the other are occupied at equilibrium, for simple one-to-one binding. Lower therefore signals higher affinity.

B1: IDE^R429S: Rat IDE residues 41-1019 bearing the mutation R429S; ATP binding site mutant (protein, listed as Rattus norvegicus)
chain: MRNGLVWLLHPALPSTLHSILGARPPPVKRLCGFPKQIYSTMNNPAIQRIEDHIVKSPEDKREYRGLELANGIKVLLISDPTTDKSSAALDVHIGSLSDPPNIPGLSHFCEHMLFLGTKKYPKENEYSQFLSEHAGSSNAFTSGEHTNYYFDVSHEHLEGALDRFAQFFLCPLFDASCKDREVNAVDSEHEKNVMNDAWRLFQLEKATGNPKHPFSKFGTGNKYTLETRPNQEGIDVREELLKFHSTYYSSNLMAICVLGRESLDDLTNLVVKLFSEVENKNVPLPEFPEHPFQEEHLKQLYKIVPIKDIRNLYVTFPIPDLQQYYKSNPGHYLGHLIGHEGPGSLLSELKSKGWVNTLVGGQKEGARGFMFFIINVDLTEEGLLHVEDIILHMFQYIQKLRAEGPQEWVFQECKDLNAVAFRFKDKESPRGYTSKIAGKLHYYPLNGVLTAEYLLEEFRPDLIDMVLDKLRPENVRVAIVSKSFEGKTDRTEQWYGTQYKQEAIPEDVIQKWQNADLNGKFKLPTKNEFIPTNFEILALEKDATPYPALIKDTAMSKLWFKQDDKFFLPKACLNFEFFSPFAYVDPLHCNMAYLYLELLKDSLNEYAYAAELAGLSYDLQNTIYGMYLSVKGYNDKQPILLKKITEKMATFEIDKKRFEIIKEAYMRSLNNFRAEQPHQHAMYYLRLLMTEVAWTKDELKEALDDVTLPRLKAFIPQLLSRLHIEALLHGNITKQAALGVMQMVEDTLIEHAHTKPLLPSQLVRYREVQLPDRGWFVYQRRNEVHNNCGIEIYYQTDMQSTSENMFLELFCQIISEPCFNTLRTKEQLGYIVFSGPRRANGIQGLRFIIQSEKPPHYLESRVEAFLITMEKAIEDMTEEAFQKHIQALAIRRLDKPKKLSAECAKYWGEIISQQYNYDRDNIEVAYLKTLSKDDIIKFYKEMLAVDAPRRHKVSVHVLAREMDSCPVVGEFPSQNDINLSEAPPLPQPEVIHNMTEFKRGLPLFPLVKPHINFMAAKL
modifications: wild-type Insulin Degrading Enzyme (IDE) from rat
As to B1, the “fluorescence associated with TNP-ATP binding, relative to wild type IDE” value in data set [1] was “lower fluorescent yield”. The “kcat relative to wild-type IDE” value in the data set with Abz-GGFLRKHGQ-EDDnp [2] was “essentially the same”. Further, in the data set on Abz-GGFLRKHGQ-EDDnp [2] (rat IDE), the “Hill coefficient” value was 1.7 ± 0.2, the Michaelis constant (Km) was found to be 21300 ± 2400 µM and the kcat was 0.0783 ± 0.005 s⁻¹. For the same molecule, the Vmax with Abz-GGFLRKHGQ-EDDnp [2] (rat IDE, 50 mM Tris-HCl, pH 7.4) was 42.3 ± 3.2 nmol/min/mg. Also, the “level of activation by ATP, of the wild type value” in the data set on Abz-GGFLRKHGQ-EDDnp [3] was “about 15%”.

B2: Y609F: Rat IDE distal site mutant Y609F (protein, UniProt P35559 1-1019, looked up, variant Y609F)
Insulin-degrading enzyme: B1 chain with S429R, Y609F
As to B2, the ATP activation result in the data set with Abz-GGFLRKHGQ-EDDnp [4] is “not significant”. In data set [5], this molecule returned a Kd of 2 ± 0.3 µM. Moreover, in the data set with Abz-GGFLRKHGQ-EDDnp [6], the Hill coefficient was 1.04, the Km turned out to be 6.86 ± 1.18 µM and the Vmax came out at 2.6 ± 0.56 nmol/min/mg. Also, the Hill coefficient in the data set with Abz-GGFLRKHGQ-EDDnp [6] (listed as Tyr609Phe) was 1.04 ± 0.14.

B3: I374S: Rat IDE distal site mutant I374S (protein, UniProt P35559 1-1019, looked up, variant I374S)
Insulin-degrading enzyme: B1 chain with I374S, S429R
In the case of B3, the ATP activation entry in the data set on Abz-GGFLRKHGQ-EDDnp [4] is reported as “not significant”. Besides, binding in data set [5] was put at a Kd of 2.1 ± 0.5 µM. Moreover, in the data set with Abz-GGFLRKHGQ-EDDnp [6], the Hill coefficient was 1.12, the Km was 8.5 ± 1.74 µM and the maximal velocity (Vmax) is given as 3.45 ± 0.22 nmol/min/mg. In the data set on Abz-GGFLRKHGQ-EDDnp [6] (listed as Ile374Ser), the Hill coefficient is reported as 1.12 ± 0.2.

B4: V360S: Rat IDE distal site mutant V360S (protein, UniProt P35559 1-1019, looked up, variant V360S)
Insulin-degrading enzyme: B1 chain with V360S, S429R
Molecule B4 yielded an ATP activation with Abz-GGFLRKHGQ-EDDnp [4] of 8 fold. For the same molecule, the Kd in data set [5] worked out at 3.7 ± 0.8 µM. In the data set on Abz-GGFLRKHGQ-EDDnp [6], the Hill coefficient worked out at 1.07, the Michaelis constant (Km) turned out to be 8.61 ± 0.81 µM and the Vmax is 2.01 ± 0.08 nmol/min/mg. Further, the Hill coefficient in the data set on Abz-GGFLRKHGQ-EDDnp [6] (listed as Val360Ser) was determined as 1.07 ± 0.30.

For the origin of these results see patent US8632989B1, “Mutant insulin degrading enzyme and methods of use” (University of Kentucky Research Foundation, priority 2011, dated 2014).
